Experimental data published in US20120207760A1.

B1: TCN-523 (5248_A17) (antibody, V domains shown)
VH: QVQLVQSGAEVKKPGSSVKVSCKASGGSFSNYAFSWVRQAPGQGLEWMGGTIPLLGTTNYAQKFQGRVTISADQFTSTAYMELGSLRSEDTAVYYCTRRKMTTAFDSWGQGTLVTVSS
VL: QPVLTQPPSASASLGASVTLTCTLSSAYSNYKVDWYQQRPGKGPRFVMRVGTGGIVGSKGDGIPDRFSVLGSGLNRYLTIKNIQEEDESDYHCGADHGSGSNFVSPYVFGGGTKLTVL
B2: TCN-504 (3251_K17) (antibody, V domains shown)
VH: QVQLQESGPGLVKPSETLSLTCAVSGVSISNIDFYWGWIRQPPGKGLEWIGNIYYTGITFYNPSLSSRVAISIDTSKNQFSLTLTSVTAADTAMYYCARHYGDSEAINDAFDIWGQGTMLTVSS
VL: EIVMTQSPATLSVSPGERATLSCRASQSVGNSLAWYQQRPGQAPRLLIYGASTRATGIPPRFSGSGSGTEFTLTISSLQTEDFAVYYCQQYINWRPLSFGGGTKVEIK

Key:
Settings in all cases: remark: other sources report otherwise
[1] = target: T1, recombinant homotrimeric HA, A/Vietnam/1203/04 H5N1 (Influenza A virus A/Vietnam/1203/04 (H5N1)); test: trimeric HA microarray, transfection set 5
[2] = target: T2, recombinant homotrimeric HA, A/Indonesia/5/05 H5N1 (Influenza A virus A/Indonesia/5/05 (H5N1)); test: trimeric HA microarray, transfection set 5
[3] = target: T3, recombinant homotrimeric HA, A/swine/Ontario/01911-2/99 H4N6 (Influenza A virus A/swine/Ontario/01911-2/99 (H4N6)); test: trimeric HA microarray, transfection set 5
[4] = target: T4, recombinant homotrimeric HA, A/South Carolina/1/18 H1N1 (Influenza A virus A/South Carolina/1/18 (H1N1)); test: trimeric HA microarray, transfection set 5
[5] = target: T5, recombinant homotrimeric HA, A/Japan/305/57 H2N2 (Influenza A virus A/Japan/305/57 (H2N2)); test: trimeric HA microarray, transfection set 5
[6] = target: T6, recombinant homotrimeric HA, A/California/4/09 H1N1 (Influenza A virus A/California/4/09 (H1N1)); test: trimeric HA microarray, transfection set 5
[7] = target: T7, recombinant homotrimeric HA, A/Solomon Islands/3/06 H1N1 (Influenza A virus A/Solomon Islands/3/06 (H1N1)); test: trimeric HA microarray, transfection set 5
[8] = target: T1, recombinant homotrimeric HA, …; test: trimeric HA microarray, transfection set 4
[9] = target: T2, recombinant homotrimeric HA, …; test: trimeric HA microarray, transfection set 4
[10] = target: T3, recombinant homotrimeric HA, …; test: trimeric HA microarray, transfection set 4
[11] = target: T4, recombinant homotrimeric HA, A/South …; test: trimeric HA microarray, transfection set 4
[12] = target: T5, recombinant homotrimeric HA, …; test: trimeric HA microarray, transfection set 4
[13] = target: T6, recombinant homotrimeric HA, …; test: trimeric HA microarray, transfection set 4
[14] = target: T7, recombinant homotrimeric HA, A/Solomon …; test: trimeric HA microarray, transfection set 4
[15] = target: T1, recombinant homotrimeric HA, …; test: trimeric HA microarray, transfection set 3
[16] = target: T2, recombinant homotrimeric HA, …; test: trimeric HA microarray, transfection set 3
[17] = target: T3, recombinant homotrimeric HA, …; test: trimeric HA microarray, transfection set 3
[18] = target: T4, recombinant homotrimeric HA, A/South …; test: trimeric HA microarray, transfection set 3
[19] = target: recombinant homotrimeric HA, A/Hong Kong/2108/03 H9N2 (Influenza A virus A/Hong Kong/2108/03 (H9N2)); test: trimeric HA microarray, transfection set 3
[20] = target: recombinant homotrimeric HA, A/common magpie/Hong Kong/5052/07 H5N1 (Influenza A virus A/common magpie/Hong Kong/5052/07 (H5N1)); test: trimeric HA microarray, transfection set 3
[21] = target: recombinant homotrimeric HA, A/chicken/Vietnam/NCVD-016/08 H5N1 (Influenza A virus A/chicken/Vietnam/NCVD-016/08 (H5N1)); test: trimeric HA microarray, transfection set 3
[22] = target: T5, recombinant homotrimeric HA, …; test: trimeric HA microarray, transfection set 3
[23] = target: T8, recombinant homotrimeric HA, A/Egypt/3300-NAMRU3/08 H5N1 (Influenza A virus A/Egypt/3300-NAMRU3/08 (H5N1)); test: trimeric HA microarray, transfection set 3
[24] = target: T6, recombinant homotrimeric HA, …; test: trimeric HA microarray, transfection set 3
[25] = target: T7, recombinant homotrimeric HA, A/Solomon …; test: trimeric HA microarray, transfection set 3
[26] = target: T2, recombinant homotrimeric HA, …; test: trimeric HA microarray, transfection set 1
[27] = target: T3, recombinant homotrimeric HA, …; test: trimeric HA microarray, transfection set 1
[28] = target: T8, recombinant homotrimeric HA, …; test: trimeric HA microarray, transfection set 1
[29] = target: T6, recombinant homotrimeric HA, …; test: trimeric HA microarray, transfection set 1

Row | Binder | Trimeric HA Binding RLU [1] [RLU] | Trimeric HA Binding RLU [2] [RLU] | Trimeric HA Binding RLU [3] [RLU] | Trimeric HA Binding RLU [4] [RLU] | Trimeric HA Binding RLU [5] [RLU] | Trimeric HA Binding RLU [6] [RLU] | Trimeric HA Binding RLU [7] [RLU] | Trimeric HA Binding RLU [8] [RLU] | Trimeric HA Binding RLU [9] [RLU] | Trimeric HA Binding RLU [10] [RLU] | Trimeric HA Binding RLU [11] [RLU] | Trimeric HA Binding RLU [12] [RLU] | Trimeric HA Binding RLU [13] [RLU] | Trimeric HA Binding RLU [14] [RLU] | Trimeric HA Binding RLU [15] [RLU] | Trimeric HA Binding RLU [16] [RLU] | Trimeric HA Binding RLU [17] [RLU] | Trimeric HA Binding RLU [18] [RLU] | Trimeric HA Binding RLU [19] [RLU] | Trimeric HA Binding RLU [20] [RLU] | also measured
1 | B1 | 27800 | 55000 | 1700 | 52000 | 22000 | 34400 | 37600 | 30900 | 24500 | 850 | 23000 | 3840 | 28800 | 371 | 22100 | 22000 | 1640 | 23700 | 51 | 640 | Trimeric HA Binding RLU [21]: 18900 RLU; Trimeric HA Binding RLU [22]: 4550 RLU; Trimeric HA Binding RLU [23]: 29100 RLU; Trimeric HA Binding RLU [24]: 19400 RLU; Trimeric HA Binding RLU [25]: 11000 RLU; Trimeric HA Binding RLU [26]: 18500 RLU; Trimeric HA Binding RLU [27]: 49 RLU; Trimeric HA Binding RLU [28]: 25500 RLU; Trimeric HA Binding RLU [29]: 17700 RLU
2 | B2 | 21500 | 18500 | 54800 | 32000 | 23300 | 17600 | 30100 | 25700 | 18200 | 21800 | 21700 | 19600 | 549 | 14600 | 13300 | 18600 | 34500 | 27600 | 36 | 17800 | Trimeric HA Binding RLU [21]: 10300 RLU; Trimeric HA Binding RLU [22]: 36000 RLU; Trimeric HA Binding RLU [23]: 18000 RLU; Trimeric HA Binding RLU [24]: 18600 RLU; Trimeric HA Binding RLU [25]: 32700 RLU; Trimeric HA Binding RLU [26]: 16600 RLU; Trimeric HA Binding RLU [27]: 26500 RLU; Trimeric HA Binding RLU [28]: 16100 RLU; Trimeric HA Binding RLU [29]: 18300 RLU
